Series [1] concerns the target recombinant GST-Flag-CERT(1-138) wild type fusion protein, produced in E. coli [GST: P08515].
Series [2] addresses recombinant GST-Flag-CERT-S132A(1-138) fusion protein, produced in E. coli [GST: P08515].

B1: purified PKD1 (protein)
chain: MSAPPVLRPPSPLLPVAAAAAAAAAALVPGSGPGPAPFLAPVAAPVGGISFHLQIGLSREPVLLLQDSSGDYSLAHVREMACSIVDQKFPECGFYGMYDKILLFRHDPTSENILQLVKAASDIQEGDLIEVVLSASATFEDFQIRPHALFVHSYRAPAFCDHCGEMLWGLVRQGLKCEGCGLNYHKRCAFKIPNNCSGVRRRRLSNVSLTGVSTIRTSSAELSTSAPDEPLLQKSPSESFIGREKRSNSQSYIGRPIHLDKILMSKVKVPHTFVIHSYTRPTVCQYCKKLLKGLFRQGLQCKDCRFNCHKRCAPKVPNNCLGEVTINGDLLSPGAESDVVMEEGSDDNDSERNSGLMDDMEEAMVQDAEMAMAECQNDSGEMQDPDPDHEDANRTISPSTSNNIPLMRVVQSVKHTKRKSSTVMKEGWMVHYTSKDTLRKRHYWRLDSKCITLFQNDTGSRYYKEIPLSEILSLEPVKTSALIPNGANPHCFEITTANVVYYVGENVVNPSSPSPNNSVLTSGVGADVARMWEIAIQHALMPVIPKGSSVGTGTNLHRDISVSISVSNCQIQENVDISTVYQIFPDEVLGSGQFGIVYGGKHRKTGRDVAIKIIDKLRFPTKQESQLRNEVAILQNLHHPGVVNLECMFETPERVFVVMEKLHGDMLEMILSSEKGRLPEHITKFLITQILVALRHLHFKNIVHCDLKPENVLLASADPFPQVKLCDFGFARIIGEKSFRRSVVGTPAYLAPEVLRNKGYNRSLDMWSVGVIIYVSLSGTFPFNEDEDIHDQIQNAAFMYPPNPWKEISHEAIDLINNLLQVKMRKRYSVDKTLSHPWLQDYQTWLDLRELECKIGERYITHESDDLRWEKYAGEQGLQYPTHLINPSASHSDTPETEETEMKALGERVSIL
Consider B1, for which the entries for the “incorporation of radioactivity (in vitro kinase assay with [gamma-32P]-ATP, PhosphoImager)” value in series [1] and in series [2] were “incorporation of radioactivity is detected” and “This is significantly impaired in the case of the CERT-S132A fusion protein”, respectively.

(Values after US20090018099.)
